Earlier results as cited in article PMC11591972.

Molecular target: Vm24 (Vaejovis mexicanus smithi) (UniProt P0DJ31)
Chain of UniProt P0DJ31 (P0DJ31 whole entry): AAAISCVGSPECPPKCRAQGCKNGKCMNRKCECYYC

For Kv1.3 (from UniProt P22001), the Kd is listed as 3 pM.
